Results published in the DeepSol protein solubility set.

assay: soluble on expression in E. coli; label from the status in PepcDB or PDB records

Soluble on expression in E. coli, not soluble:
MKFPGKRKSKHYFPVNARDPLLQQFQPENETSAAWVVGIDQTLVDIEAKVDDEFIERYGLSAGHSLVIEDDVAEALYQELKQKNLITHQFAGGTIGNTMHNYSVLADDRSVLLGVMCSNIEIGSYAYRYLCNTSSRTDLNYLQGVDGPIGRCFTLIGESGERTFAISPGHMNQLRAESIPEDVIAGASALVLTSYLVRCKPGEPMPEATMKAIEYAKKYNVPVVLTLGTKFVIAENPQWWQQFLKDHVSILAMNEDEAEALTGESDPLLASDKALDWVDLVLCTAGPIGLYMAGFTEDEAKRKTQHPLLPGAIAEFNQYEFSRAMRHKDCQNPLRVYSHIAPYMGGPEKIMNTNGAGDGALAALLHDITANSYHRSNVPNSSKHKFTWLTYSSLAQVCKYANRVSYQVLNQHSPRLTRGLPEREDSLEESYWDR
MSLELFRSKTCALCKGRKLMCGRPRCPILEKFRVAKSVESKINKKEIFGASPPSVFVGEFGYPNVRIGPMVPPVEGDTSFMDDPSRWENVTILEIMEYRSMLVMGETNAHVQVKKNLNFLTHIQELAMANKPVDSEILLKKTPKLDLITGGFTPPVGPRETMLKFKLAENPKIPKKTDYIVNDELKANEGMISLYDSGFDEYYIIKLLSTGLLGVNKKLVPTKWSITAAQDLLGKYVKKSILEYSQINEYEVYFKNFLGNRYAVLLIPDIYAYEMLEVWLKGSLFSGESYNVLSDFEDTTGMKGYADEITGAFYACRLSILEYLKKRKKQAKILVFREITPEYYAPVGVWQIRTGVKLAMENRVGRFNNLKSALESIKKHLEVPIDDYKTKSKILKSNDRQITLDKFFEGHHHHHH
MSVWASRLKAMGLLENLLNRYTPRTSGTPVFAVIDTGTTGFNKRYDHIIELAAVRADAYFKPVDSWHALLNPDTNAVSTTRGTPPPTSALNPAVGVTRSEAS

Soluble on expression in E. coli, soluble:
GSSGSSGTRTYDREGFKKRAACLCFRSEQEDEVLLVSSSRYPDQWIVPGGGMEPEEEPGGAAVREVYEEAGVKGKLGRLLGIFENQDRKHRTYVYVLTVTEILEDWEDSVNIGRKREWFKVEDAIKVLQCHKPVHAEYLEKLKLG
MSLVQSAVLGFPRIGPNRELKKATEGYWNGKITVDELFKVGKDLRTQNWKLQKEAGVDIIPSNDFSFYDQVLDLSLLFNVIPDRYTKYDLSPIDTLFAMGRGLQRKATETEKAVDVTALEMVKWFDSNYHYVRPTFSKTTQFKLNGQKPVDEFLEAKELGIHTRPVLLGPVSYLFLGKADKDSLDLEPLSLLEQLLPLYTEILSKLASAGATEVQIDEPVLVLDLPANAQAAIKKAYTYFGEQSNLPKITLATYFGTVVPNLDAIKGLPVAALHVDFVRAPEQFDEVVAAIGNKQTLSVGIVDGRNIWKNDFKKSSAIVNKAIEKLGADRVVVATSSSLLHTPVDLNNETKLDAEIKGFFSFATQKLDEVVVITKNVSGQDVAAALEANAKSVESRGKSKFIHDAAVKRRVASIDEKMSTRAAPFEQRLPEQQKVFNLPLFPTTTIGSFPQTKDIRINRNKFNKGTISAEEYEKFINSEIEKVIRFQEEIGLDVLVHGEPERNDMVQYFGEQINGYAFTVNGWVQSYGSRYVRPPIIVGDLSRPKAMSVKESVYAQSITSKPVKGMLTGPITCLRWSFPRDDVDQKTQAMQLALALRDEVNDLEAAGIKVIQVDEPALREGLPLREGTERSAYYTWAAEAFRVATSGVANKTQIHSHFCYSDLDPNHIKALDADVVSIEFSKKDDANYIAEFKNYPNHIGLGLFDIHSPRIPSKDEFIAKISTILKSYPAEKFWVNPDCGLKTRGWEETRLSLTHMVEAAKYFREQYKNEGHHHHHH
MDKIPDIMAKIKTMAPAIRSIDTRTVKVAPKVADAELQSAEYRQWRNAVYRRAGYRCEAIDNGRRCTKAAPAHRLFADHIVERRDGGALLDAANGQCLCGSHHTRKTVAARAARLSSRSRGGGSNLLEHHHHHH
EGCYVATLEKCATCSQPILDRILRAMGKAYHPGCFTCVVCHRGLDGIPFTVDATSQIHCIEDFHRKFA
MKKWRFLGIDDSFDDRKCCVVGCVTCGGYVEGFLYTEIDIDGLDATDKLISMVRRSKFREQIKCIFLPGITLGGFNLVDIQRVYRETKIPVVVVMRRKPDMEEFDSAMRNLENYELRRKIVEVAGEIHRIGDIYIQTAGLTPSEAEKLVKASLIKGNMPEPVRISHLVASAIIHGESRGKA
GAMATGSRIGGGIDVPVPRHSVGVVIGRSGEMIKKIQNDAGVRIQFKQDDGTGPEKIAHIMGPPDRCEHAARIINDLLQSLRSGPPGPPGGPGMPPGGRGRGRGQG
